Assay results published in patent publication US20240252641A1.

How the values were obtained:
[1] = target: CD70 on cells (CHO-CD70, JVM-3, U266, Raji, THP-1, T cells) (human) (UniProt P32970); assay: on Raji cells
[2] = target: CD70 on cells (CHO-CD70, JVM-3, U266, Raji, THP-1, T cells) (human) (UniProt P32970); assay: on U266 cells
[3] = target: CD70 on cells (CHO-CD70, JVM-3, U266, Raji, THP-1, T cells) (human) (UniProt P32970); assay: on JVM-3 cells

Sequence of CD70 on cells (CHO-CD70, JVM-3, U266, Raji, THP-1, T cells) (human) (P32970 whole entry): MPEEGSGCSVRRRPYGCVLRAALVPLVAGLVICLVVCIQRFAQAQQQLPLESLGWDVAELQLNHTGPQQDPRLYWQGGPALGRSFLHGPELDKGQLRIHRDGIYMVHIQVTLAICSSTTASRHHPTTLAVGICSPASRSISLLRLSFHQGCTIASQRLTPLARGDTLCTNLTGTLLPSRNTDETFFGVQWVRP

Substance: 1F6 (clone ID in Table 3, alloy mouse hybridoma) (antibody)
- cell binding [1]: 68900
- cell binding [2]: 239000
- cell binding [3]: 225000
